From publication doi:10.1101/2020.06.27.175497, “Novel mode of filament formation in UPA-promoted CARD8 and NLRP1 Inflammasomes” (bioRxiv, 2020)

B1: NLRP1-CT (UPA-CARD fragment of NLRP1, S1213-S1473) (domain or fragment, human, UniProt Q9C000-1 1213-1473, looked up)
chain: SPLGVLLKMIHNALRFIPVTSVVLLYHRVHPEEVTFHLYLIPSDCSIRKAIDDLEMKFQFVRIHKPPPLTPLYMGCRYTVSGSGSGMLEILPKELELCYRSPGEDQLFSEFYVGHLGSGIRLQVKDKKDETLVWEALVKPGDLMPATTLIPPARIAVPSPLDAPQLLHFVDQYREQLIARVTSVEVVLDKLHGQVLSQEQYERVLAENTRPSQMRKLFSLSQSWDRKCKDGLYQALKETHPHLIMELWEKGSKKGLLPLSS
notes: NLRP1, human, UPA-CARD fragment S1213-S1473, isoform 1 (Q9C000-1); Forms thick helical filaments of CARD dimers; the purified filaments still held some uncleaved His-MBP-tagged subunits; Only the CARD is resolved in the map; also called NLRP1^UPA-CARD; source: E. coli BL21 (DE3), purified (amylose resin, Superose 6, MBP-3C protease cleavage, Superose 6 void fraction); not shown: His, …
B4: CARD8-CT (UPA-CARD fragment of CARD8, S297-L537) (domain or fragment, human, UniProt Q9Y2G2-5 297-537, looked up)
chain: SLMGILLRIASGTRLSIPITSNTLIYYHPHPEDIKFHLYLVPSDALLTKAIDDEEDRFHGVRLQTSPPMEPLNFGSSYIVSNSANLKVMPKELKLSYRSPGEIQHFSKFYAGQMKEPIQLEITEKRHGTLVWDTEVKPVDLQLVAASAPPPFSGAAFVKENHRQLQARMGDLKGVLDDLQDNEVLTENEKELVEQEKTRQSKNEALLSMVEKKGDLALDVLFRSISERDPYLVSYLRQQNL
notes: CARD8, human, UPA-CARD fragment S297-L537 of the T60 isoform; numbers count on: the T60 isoform Q9Y2G2-5; Forms helical filaments; the purified filaments still held some uncleaved His-MBP-tagged subunits; Only the CARD is resolved in the map; also called CARD8^UPA-CARD; source: E. coli BL21 (DE3), purified (amylose resin, MBP-3C protease cleavage, Superose 6 void fraction); not shown: His, …
B8: caspase-1^CARD (1-95) G20K (domain or fragment, UniProt P29466 1-95, looked up)
chain: MADKVLKEKRKLFIRSMGEKTINGLLDELLQTRVLNKEEMEKVKRENATVMDKTRALIDSVIPKGAQACQICITYICEEDSYLAGTLGLSADQTS
notes: caspase-1, CARD, residues 1-95; Stood in the experiment on one chain with ASC^CARD W169G through a 5 x GSS linker (fusion m9); also called CASP1^CARD; type IIb G20K mutant of caspase-1^CARD; source: E. coli BL21 (DE3), purified (Ni-NTA, TEV cleavage, amylose flow-through, Superdex 200), as part of the fusion m9

How the values were obtained:
[1] = target: the molecule itself; test: negative-stain EM of filaments formed in vitro; recombinant MBP-tagged protein cleaved with 3C protease, sample stained with 1% uranyl formate and imaged
[2] = target: the molecule itself; test: SEC; amylose eluate of His-MBP-NLRP1-CT on Superose 6 in 25 mM Tris-HCl pH 7.5, 150 mM NaCl, 1 mM TCEP; a range of small oligomers
[3] = target: B1; test: SEC; after partial 3C cleavage, filaments recovered from the Superose 6 void fraction; SDS-PAGE of the fraction shows uncleaved MBP-tagged protein; details: both partners purified
[4] = target: the molecule itself; test: cryo-EM structure; purified CARD8 CT filaments (Superose 6 void fraction), A280 = 0.75; 25 mM Tris-HCl pH 7.5, 150 mM NaCl, 1 mM TCEP; helical reconstruction
[5] = target: B4; test: SEC; after partial 3C cleavage, filaments recovered from the Superose 6 void fraction; SDS-PAGE of the fraction shows uncleaved MBP-tagged protein; details: both partners purified
[6] = target: B8; test: cryo-EM structure; purified ASC^CARD-caspase-1^CARD octamer (tetramer of the fusion protein); single-particle reconstruction; details: both partners purified
[7] = target: the molecule itself; test: as above
[8] = target: the molecule itself; test: SEC-MALS; Superdex 200 in 25 mM Tris-HCl pH 8.0, 150 mM NaCl, 2 mM DTT; three-angle light scattering and refractive index detectors

Does B1 bind [1]?
Result: binds

B2: His-MBP-3C-UPA-CARD of NLRP1 (uncleaved MBP fusion of NLRP1-CT) (domain or fragment, human, UniProt Q9C000-1 1213-1473, looked up)
chain: SPLGVLLKMIHNALRFIPVTSVVLLYHRVHPEEVTFHLYLIPSDCSIRKAIDDLEMKFQFVRIHKPPPLTPLYMGCRYTVSGSGSGMLEILPKELELCYRSPGEDQLFSEFYVGHLGSGIRLQVKDKKDETLVWEALVKPGDLMPATTLIPPARIAVPSPLDAPQLLHFVDQYREQLIARVTSVEVVLDKLHGQVLSQEQYERVLAENTRPSQMRKLFSLSQSWDRKCKDGLYQALKETHPHLIMELWEKGSKKGLLPLSS
notes: NLRP1, human, UPA-CARD fragment S1213-S1473, isoform 1 (Q9C000-1); HRV 3C protease linker between MBP and UPA-CARD; modified pDB-His-MBP vector; also called MBP-fusion protein; MBP-CT fusion protein; source: E. coli BL21 (DE3), purified (amylose resin, Superose 6); not shown: His, N-terminal, kept; MBP, N-terminal, kept
Does B2 bind [2]?
Result: binds

Does B2 bind [3]?
Result: binds

B3: NLRP1^CARD (D1374-S1473, with G1463C) (domain or fragment, human, UniProt Q9C000-1 1374-1473, looked up)
chain: DAPQLLHFVDQYREQLIARVTSVEVVLDKLHGQVLSQEQYERVLAENTRPSQMRKLFSLSQSWDRKCKDGLYQALKETHPHLIMELWEKCSKKGLLPLSS
notes: NLRP1, human, CARD D1374-S1473, isoform 1 (Q9C000-1); G1463C (helix alpha6) was added for cysteine labelling in the constructs for in vitro analyses; The cleavage of the tag is described for the CARD8^CARD filament assay; also called CARD alone; WT CARD; source: E. coli BL21 (DE3), purified as monomeric MBP-CARD (amylose resin, Superdex 200), filaments formed in vitro
Does B3 bind [1]?
Result: binds

Does B4 bind [4]?
Result: binds

B5: His-MBP-3C-UPA-CARD of CARD8 (uncleaved MBP fusion of CARD8-CT) (domain or fragment, human, UniProt Q9Y2G2-5 297-537, looked up)
chain: SLMGILLRIASGTRLSIPITSNTLIYYHPHPEDIKFHLYLVPSDALLTKAIDDEEDRFHGVRLQTSPPMEPLNFGSSYIVSNSANLKVMPKELKLSYRSPGEIQHFSKFYAGQMKEPIQLEITEKRHGTLVWDTEVKPVDLQLVAASAPPPFSGAAFVKENHRQLQARMGDLKGVLDDLQDNEVLTENEKELVEQEKTRQSKNEALLSMVEKKGDLALDVLFRSISERDPYLVSYLRQQNL
notes: CARD8, human, UPA-CARD fragment S297-L537 of the T60 isoform; numbers count on: the T60 isoform Q9Y2G2-5; HRV 3C protease linker between MBP and UPA-CARD; modified pDB-His-MBP vector; also called MBP-fusion protein; MBP-CT fusion protein; source: E. coli BL21 (DE3), purified (amylose resin); not shown: His, N-terminal, kept; MBP, N-terminal, kept
Does B5 bind [5]?
Result: binds

B6: ASC^CARD (106-195) W169G (domain or fragment, UniProt Q9ULZ3 106-195, looked up)
chain: SAAKPGLHFIDQHRAALIARVTNVEWLLDALYGKVLTDEQYQAVRAEPTNPSKMRKLFSFTPAGNWTCKDLLLQALRESQSYLVEDLERS
notes: ASC, CARD, residues 106-195; Stood in the experiment on one chain with caspase-1^CARD G20K through a 5 x GSS linker (fusion m9); also called type IIa W169G mutant of ASC^CARD; source: E. coli BL21 (DE3), purified (Ni-NTA, TEV cleavage, amylose flow-through, Superdex 200), as part of the fusion m9
Does B6 bind [6]?
Result: binds

Does B6 bind [7]?
Result: binds

B7: ASC^CARD (106-195, W169G) - 5 x GSS linker - caspase-1^CARD (1-95, G20K) fusion protein (other)
chain: SAAKPGLHFIDQHRAALIARVTNVEWLLDALYGKVLTDEQYQAVRAEPTNPSKMRKLFSFTPAGNWTCKDLLLQALRESQSYLVEDLERSGSSGSSGSSGSSGSSMADKVLKEKRKLFIRSMGEKTINGLLDELLQTRVLNKEEMEKVKRENATVMDKTRALIDSVIPKGAQACQICITYICEEDSYLAGTLGLSADQTS
notes: ASC, CARD, residues 106-195; 5 x GSS linker, written out from '5XGSS'; caspase-1, CARD, residues 1-95; Tetramer of the fusion = octamer of CARDs; also called ASC^CARD-caspase-1^CARD fusion protein; ASC^CARD-CASP1^CARD; source: E. coli BL21 (DE3), purified (Ni-NTA, TEV cleavage, amylose flow-through, Superdex 200); not shown: His6, N-terminal, cleaved; MBP, N-terminal, cleaved
With B7 as the binder, how does the “stoichiometry N” value [8] read?
Its value is 4.

Does B8 bind [7]?
Result: binds
